The results in this text go back to US20250051802.

The test system of this data set is SluCas9. As to the kind of experiment: cell_activity. The settings on record: amplicon sequencing, HEK 293T.

Consider “CCAUUCCCUCUUUAGCCAGAG / CCATTCCCTCTTTAGCCAGAGCGGGGT / ACCCCGCTCTGGCTAAAGAGGGAATGG [pBLR194 guide spacer ; pBLR194 target with PAM]”, for which the activity (PAM NNGG (CGGGGT)) was determined as 65.7%.

For the setting “PAM NNGG (GCGGCGGC)”, “GGCCGGCGGCGGACAGUGGAC / GGCCGGCGGCGGACAGTGGACGCGGCGGC / GCCGCCGCGTCCACTGTCCGCCGCCGGCC [pBLR179 guide spacer ; pBLR179 target with PAM]” gave an activity of 72.8%.

“UGCCCUGUGGGGCAAGGUGAA / TGCCCTGTGGGGCAAGGTGAAGTGGAT / ATCCACTTCACCTTGCCCCACAGGGCA [pBLR197 guide spacer ; pBLR197 target with PAM]” registered an activity (PAM NNGG (GTGGAT)) of 1.9%.
